Source: patent publication US12589171B2, “177-Lu labeled peptide for site-specific uPAR-targeting” (priority 2012, dated 2026)

Assay: in vivo
Design: species or system NMRI nude mice
Details: female, NMRI nude, mouse, iv, total radioactivity
Protocol: For PET/CT imaging, one mouse was injected with ^64Cu-DOTA-AE105 and scanned 1 h post injection. Gamma planar imaging was performed on another mouse 1 h post injection of ^177Lu-DOTA-AE105. Quantitative data were based on manual drawings of region-of-interest analyses on PET/CT data and from analyzed whole tumor tissue using a gamma-counter for planar data. A. Representative images after PET/CT (left) and Gamma planar (right) imaging of HT-29 tumor xenograft. White arrows indicate tumor xenograft. B. […] Quantitative tumor uptake data is presented as % ID/g±SEM based on three animals. Ten min static PET scans were acquired with a microPET Focus 120 scanner (Siemens Medical Solutions, Malvern, PA) 1 hr post i.v. injection of approximately 10 MBq of either ^64Cu-DOTA-AE105 or ^18F-FLT during sevoflurane anesthesia. All PET/CT settings were used as described in detail previously. All results were analyzed using Inveon software (Siemens Medical Solutions) and PET data was expressed as percent of injected dose per gram tissue (% ID/g), with CT-data expressed as cubic millimeters (mm^3). […] This is illustrated in FIG. 2A (left), where a colorectal HT-29 tumor bearing mouse was PET/CT scanned using ^64Cu-DOTA-AE105. […] In FIG. 2A (right) is a representative planar image of a HT-29 tumor bearing mice after injection of ^177Lu-DOTA-AE105.

CC(C)C[C@H](NC(=O)[C@H](Cc1ccc(O)cc1)NC(=O)[C@@H](CCCNC(=N)N)NC(=O)[C@@H](CO)NC(=O)[C@H](Cc1ccccc1)NC(=O)[C@H](CC1CCCCC1)NC(=O)[C@H](CC(=O)O)NC(=O)CN1CCN(CC(=O)O)CCN(CC(=O)O)CCN(CC(=O)O)CC1)C(=O)N[C@@H](Cc1c[nH]c2ccccc12)C(=O)N[C@@H](CO)C(N)=O [^64Cu-DOTA-AE105, metal not drawn] gave a tissue uptake at 1 h of 0.86 ± 0.03 %ID/g.
